Data reported in article PMC4640189.
Values joined by “and” are separate entries in the source; they are usually repeats but may differ in a detail not shown here. Equal entries are not always repeated.

Molecular target: CARD-deleted NLRC4 (mouse) (UniProt Q3UP24)
Experiment: cryo-EM structure

- blades of the disk (one of them taken to be NAIP2): 11 blades and 12 blades and 10 blades
Substance: CARD-deleted NLRC4 (from UniProt Q3UP24 1-1024) (domain or fragment)
